# Source: the nanobody polyreactivity screen of Harvey et al. (2022)
# Assay: yeast display, Sf9 membrane polyspecificity reagent, FACS + sequencing; frameworks hold sequencing errors
# Procedure, shortened: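 In a synthetic yeast display library (Saccharomyces cerevisiae BJ5465), nanobody expression was induced with galactose for 36–48 hours. FACS gates were set low and high (top ~1%) using anti-HA fluorescence for expression and streptavidin fluorescence for binding of the Sf9 membrane reagent. Each polyreactivity label is drawn from the gate of origin.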
sequence,measurement,value
QVQLVESGGGLFQAGGSLRLSCAASGIIFYYNTMGWYRQAPGKDRELVAAISQRGRSTYYADSVKGRFTISRDNAKNTVYFHLNSLKPEDTAVFYCNKLRNSHGFRYDYWGQGTQVTVSS,polyreactivity (PSR sort gate),high polyreactivity
QVQLVESGGGLVQAGGSLRLSCAASGYIFYFNDMGWYRQAPGKERELVADITYSGDSTYYADSVKGRFTISRDNAKNTVYLQMNSLKPEDTAVYYCAARRGWWYRGDDYWGQGTQVNVSS,polyreactivity (PSR sort gate),low polyreactivity
QVQLVESGGGLVQAGGSLRLSCAASGFTFIYYAMGWYRQARGKERELVAAISRGDSTYYADSVKGRFTISRDNAKNTVYLQMISLKPEDTAVYYCAAASHVRRDHGYWGEGTQVTVSS,polyreactivity (PSR sort gate),low polyreactivity
QVQLVESGGGLVQAGGSLRLSCAASGFTFTVYAMGWYRQAPGQERELVATISRSAGRTYYADSVKGRFTISRDNAKNTVYLQMNSLKPEDTPVYYCNAAYGNGYTGGFDNWGQGTQVTVSS,polyreactivity (PSR sort gate),high polyreactivity
QVQLVESGGGLVQAGGSLSLSCAATGSIFPPNAMGWYRQAPGKEREFVASITSSGGITNYADSVKGRFTISRDTAKNTVYLQMNSLKTEDTAVYYCAAKYYGGTRFRPYGYWGQGTQVTVSS,polyreactivity (PSR sort gate),high polyreactivity
QVQLVESGGGLVQAGGSLRLSCAASGRIFWYNAMGWYRQAPGKQRELVAAITSGGRTYYADSVKGRFTISRDNAKNTVYLQMNSLKPEDTAVYYCAATYPSYTYDYWGQGTQVTVSS,polyreactivity (PSR sort gate),low polyreactivity
QVQLVESGGGLVQAGGSLRLSCAASGIIFNYYAMGWYRQAPGKERELVAAISFSGGRTYYADSVKGRFTISRDNAKNTVYLQMNCLKPEDTAVYYCNAVYRNSILAFPGEYDYWGQGTQVTVSS,polyreactivity (PSR sort gate),high polyreactivity
QVQLVESGGGLVQAGGSLRLSSAASGRTFAYYAMGWYRQAPGKERELVAAISSAGRTYYADSVKGRFTISRDNAKNTVYLQMNSLKTEDTAVYYCAAEWYYYVIWLYEYWGQGTQVTVSS,polyreactivity (PSR sort gate),high polyreactivity
QVQLVESGAGLVQAGGSLRLSCAPSGSILVNPIGWYRQAPGKEREFVAAISSGGSTKYADSVKGRFTISRDNAKNTVYLQMNSLKPEATAVYYCNARRRGAGGYDYWGQVTQVTVSS,polyreactivity (PSR sort gate),high polyreactivity
QVQLVESGGGLVQAGGSLRLSCAASGRIFGRYAMGWYRQAPGKERELVAGITGSSGTTYYADSVKGRFTISLDNAKNTVYLQMNSLKPEDTAVYYCAVETYWHARSHDYWGQGTQVTVSS,polyreactivity (PSR sort gate),low polyreactivity
QVQLVESGAGLVQAGGSLRLSCAASGRIFNWYVMGWYRQAPGKERELVAAINSGGITKYADSVKGRFTISRDNAKNTVYLQMNSLKPEDTAVYYCAAYYRRYDYDYWGQGTQVTVSS,polyreactivity (PSR sort gate),high polyreactivity
QVQLVESGGGLVQAGGSLRLSCPASGITFGSYAMGWYRQAPGKERELVAAITSGGGTNYADSEKGRFTISRDNAKNTVYLHMNSLKPEDTAGYYCAARYYYLGTRYGYWGQGTQVTVSS,polyreactivity (PSR sort gate),low polyreactivity
QVQLVESGGGLVQAGGSLRLSCAASGSIFTWNGMGWYRQAPGKERELVAAISGSGGTTYADSVKGRFTISRDNAKNTVYLQMNSLKPEDTAVYYCARRVWVRDYPFGYARYGYWGQGTQVTVSS,polyreactivity (PSR sort gate),low polyreactivity
QVQLVESGGGLVQAGGSLRLRCAASGLIFIFNAMGWYRQAPGKERELVAAIDTSDDSTYYADSVKGRFTISRDNAKNTVYLQMNSMKPEDTAVYYCAAEELSNYEYWGQGTQVTVSS,polyreactivity (PSR sort gate),low polyreactivity
QVQLAESGGGLVQAGGSLRLSCAASGSTFVSYAMGWYRQAPGKERELVAAIDWSGGNTDYADSVKGRFTISRDNAKNTVYLQMNSLKPEDTAVYYCNADSWPRRGYDYWGQGTQVTVSS,polyreactivity (PSR sort gate),low polyreactivity
QVQLVESGGGLVQAGGSLRLSCAASGSIFPRDAMGRYRQAPGKERELVAAITGSGSSTYYADSVKGRFTISRDNAKNTVYLQMNSLKPEDTAVYYCNTARPTAAYDYWGQGTKVTVSS,polyreactivity (PSR sort gate),low polyreactivity
QVQLVESGGGLVQAGGSLRLSCAASGRTFAYYAMGWYRQAPGKERELVAAITRGGSTYYADSVKGRFTISRDNAKNTVYLQMNSLKPEDTAVYYCATLYTRYDSYLVKGKYGYWGQGTQVIVSS,polyreactivity (PSR sort gate),high polyreactivity
QVQLVESGGGLVQAGGRLRLSCPASGSIFGGYAMGWYRQAPGKERELVAGITRSGGSTYYADSVKGRFTISRYNAKNTVYFQMNSLKPEDTAVYYCAVEIQFYRSPRKVRSYDYWGQGTQVTVSS,polyreactivity (PSR sort gate),low polyreactivity
QVQLVESGGGLVQAGGSLRLSCAASGRTSNIYAMGWYRQAPGKERELVAAIRTGGSTNYADSVKGRFTISRDNAKNSVYLQMNSLKPEDTAVYYCAATSRRSRPAEEYWGQGTQVTVSS,polyreactivity (PSR sort gate),high polyreactivity
QVQLEESGGGLVQAGGSLRLSCAASGSIFLANAMGWYRQAPGKERELVATISSGGSTYYADSVKGRFTISRDNAKNTVYLQMNSLKPEDTAVYYCAKRRAYTKKLYYWGQGTQVTVSS,polyreactivity (PSR sort gate),high polyreactivity
QVQLVDSGGGLVQAGGSLRLSCPASGRTFFNNVMGWSRQAPGKEREWVAAISKSGTRTYYADSVKGRFTISRDNAKNTVYLQMNSLKPEDTAVYYCATGPYLRTSRYYYWGQGTQVTVSS,polyreactivity (PSR sort gate),high polyreactivity
QVQLVESGGGLLQAGGSLRLSCAASGRTLVSYAMGWYRQAPGKERELVATISWSGGSTYYADSVKGRFTISRDTAKNTVYLQIYSLKPEDTAGYDCNRSLTGYDELGYPVPYTYDYWGQGTQVTVSS,polyreactivity (PSR sort gate),low polyreactivity
QVQLVESGGGLVQAGGSLRLSCAASGSTFGSYAMGWYRQAPGKERELVAAISYSGGSTYYADSVKGRFTISRDNAKNTVYLLMNSLKPEDTAVYYCATVRKYRAMDYWGQGTQVTVSS,polyreactivity (PSR sort gate),high polyreactivity
QVQLVESGGGLVQAGGSLRLSCAASGRTLRPYAMGWYRQAPGKEREFVAAIRWSGGSTYYADSVKGRFTISRDNAKNTVYLQMNSLKPEDTAVYYCAASFLTYYLSLYDYWGQGTQVTVSS,polyreactivity (PSR sort gate),high polyreactivity
QVQLGESGGGLVQAGGSLRLSCAASGSIFNYYTMGWYRQAPGKERELVAAISSSGGSTYYADSVKGRFTISRDNAKNTVYLQMNSRKPEDTAVYYCAALGRYFTSAGGYWGQGTQVTVSS,polyreactivity (PSR sort gate),high polyreactivity
QVQLVESGGGLDQAGGSLRLSCAASGRIIYWYAMGWFRQAPGKERELVAAINNGGGTNYADSVKGRFTISRDNAKHTVYLQMNSLKPEDTAVYYCAADYVFYSRFFTEVYWGQGTQVTVSS,polyreactivity (PSR sort gate),low polyreactivity
QVQLVESGGGLVQAGGSLRLSCAASGITFGRNTMGWYRQAPGKERELVASISYSGTTTYYADSVKGRFTISRDNAKNTVYLQMNSLKPEDTAVYYCNKRWRYYDMDYWGQGTQVTVSS,polyreactivity (PSR sort gate),low polyreactivity
QVQLVESGGGLVQAGGSLRLSCAASGRIYAMGWYRQAPGKERELVAAISRGGSTYYADSVKGRFTISRDNAKNTVYLQMNSLKPEDTAVYYCARRYASTGYDYWGQCTQVTVSS,polyreactivity (PSR sort gate),high polyreactivity
QVQLVESGGGLVQAGGSLRLSCAASGFIFEPYAMGWYRQAPGTERELVAAISATDDSTYYADSVKGRFTISRDNAKNTVYLQMNSLKPEDTAVYYCNATYYIIALPYDYWGQGTQVTVSS,polyreactivity (PSR sort gate),low polyreactivity
QVQLVESGGGLVQAGGSLRLSCAASGRIFISNAKGWYIQAPGKERELVAAITWIGDRTYYADSVKGRFTISRDNAKITVYLEMNSLKPEDTAVYYCNRVTSRVSGRYSYEYWGQVTQVTVSS,polyreactivity (PSR sort gate),high polyreactivity
QVQLVESGGGLVQAGGSLRLSCAASGSIFGYNAMGWYRPAPGKERELVAAISRSGGSTYYADSVKGRFTISRDNAKNTVYLQMNSLKPEDTAVSYCATGYYGYRYGYWGQGTQVTVSS,polyreactivity (PSR sort gate),high polyreactivity
QVQLVESGGGLVQAGGSLRLSCAASGFIFRSYAMGWYRQAPGKEREFVASISSRGGTTYYADSVKGRFTISRDNAKNTVYLQMNSLKTEDTAVYYCYAKRRYGPDKYDYWGQGTQVTVSS,polyreactivity (PSR sort gate),high polyreactivity
QVQLVESGGGLVQAGGSLRLSSAASGRIFSINAMGWYSQAPGKERELVATISWRGGSTYYADSVKGRFTISRDNAKNTVYLQMNSLKPEDTAVYYCAAKYPYYSSYAYGYWGQGTQVTVSS,polyreactivity (PSR sort gate),high polyreactivity
QVQLVESGGGLVKAGGSLRLRCAAAGLILYPYAMGWYRQAPGKESELVAAITSDGSTYYADSVKGRFTISRVNAKNTVYLQMNSLKQEDTAVYYCAVVVAYFDDDYGLSWFYEYDYWGQGTQVTVSS,polyreactivity (PSR sort gate),low polyreactivity
QVQLVESGGGLVQAGGSLRLSCAASGITFYVYAMGWYRQAPGKERELVAAISSGSSTYYADSVKGRFTISRDNAKNTVYLQMNSLKPEDTAVYYCAARYRKYLSEYWGQGTQVTVSS,polyreactivity (PSR sort gate),high polyreactivity
QVQLVESGGGLVQAGGSLRLSCAASGFIFRGNAMGWYRQAPGKERELVAAISKRGGSTNYADSVKGRFTISRDNAKNTVYLQMNSLKPEDTAVYYCNAEGIYRQPRGYVYRYDYWGQGTQVTVSS,polyreactivity (PSR sort gate),high polyreactivity
QVQLVESGGGLVQAGGSLRLSCAASGNTFRWYAMGWYRQAPGKERELVAAITWSGGSTYYADSVKGRFTISRDNAKNPVYLQMNSLKPEDTAVYYCAARRWAGEYDYWGQGTQVTVSS,polyreactivity (PSR sort gate),low polyreactivity
QVQLVESGGGLVQAGGSLRLSCAASGFTFYAYAMGWYRQAPGKERELVAAISGRGTSTYYADSVKGRFTISRDNAKNTVYLQMNSLKPEDTAFYYCIKYPLRLYGYDYWGQGTQVTVSS,polyreactivity (PSR sort gate),high polyreactivity
QVQRVESGGGLVQAGGSLRLSCAAAGLTFYGYAMGWYRQAPGKERELVAAITRSGGSTYYADSVKGRFTISRDNAKNTVYLQMNSLKPEDTAVYYCAAEEEYLYQSNRLHPYDYWGQGTQVTVSS,polyreactivity (PSR sort gate),low polyreactivity
QVQLVESGGGLVQAGGSLRLSCAASGSIIPYYVMGWYRQAPGKERELVAAITSGGSTYYADSVKGRFTISRDNAKNTVYLQMNSLKPEDTAVYYCAVRWYPLYAPYWRDYWGQGTQVTVSS,polyreactivity (PSR sort gate),high polyreactivity
QVQLVESGGGLVQAGGSLRLSCAASGSIFGYYAMGWYRQAPGKERELVARIRSTGSTNYADSVKGRFTISRDNAKNTVYLQMNSLKPEDTAVFYCNKLAHRKGGYWGQGTQVTVSS,polyreactivity (PSR sort gate),high polyreactivity
QVQLVESGGGLVQAGGSIGLNCAASVSSYEPYVMGWYRQATGKEMELVGAIYESGDTTYYADSVKGRFTISRDNAKNTVYLQMNSLKPEDSAVYYCNAEDPSIYGWWRVGEYDYWGQGTQVTVSS,polyreactivity (PSR sort gate),low polyreactivity
QVQLVESGGGLVQAGGSLRLSCAASGRIFKDNAMGWYRQAPGKERELLATIDSGGDTNYADSVKGRFTISRDNAKNTVYLQMNSLKPEDTAVYYCNTEGFLSAVFAFGYWGQGTQVTVSS,polyreactivity (PSR sort gate),low polyreactivity
